Measured values published in patent publication US20160139131A1 (BIOALLIANCE C V, published 2016).
Values belong to the molecule of their own block, whether it stands above or below them. No end group written: not given here.

Columns and labels:
[1] = biological target: CD43 on human peripheral T cells (human) (UniProt P16150); assay: flow cytometry on peripheral T cells
[2] = biological target: CD43 expressed on the surface of COLO 205 colorectal cancer cells (human) (UniProt P16150); assay: flow cytometry on COLO 205 cells
Sequence of CD43 expressed on the surface of COLO 205 colorectal cancer cells (human) (P16150 20-400): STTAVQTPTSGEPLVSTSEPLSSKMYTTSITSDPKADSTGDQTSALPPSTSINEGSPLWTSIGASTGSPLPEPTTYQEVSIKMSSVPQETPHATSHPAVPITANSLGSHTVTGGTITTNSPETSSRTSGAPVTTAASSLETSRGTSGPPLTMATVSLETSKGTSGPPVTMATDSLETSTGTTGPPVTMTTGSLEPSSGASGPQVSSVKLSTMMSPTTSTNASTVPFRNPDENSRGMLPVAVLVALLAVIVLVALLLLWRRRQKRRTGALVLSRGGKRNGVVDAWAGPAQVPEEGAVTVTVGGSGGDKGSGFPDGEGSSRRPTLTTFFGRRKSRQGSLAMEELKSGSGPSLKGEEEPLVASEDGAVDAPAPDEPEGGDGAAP

[3] = biological target: CD43 expressed on the surface of COLO 205 colorectal cancer cells (human) (UniProt P16150); assay: flow cytometry on COLO 205 cells; signal of biotinylated 5F1 (1 microgram/ml, competitor) with unlabeled antibody at 7.4 microgram/ml
[4] = biological target: CD43 expressed on the surface of COLO 205 colorectal cancer cells (human) (UniProt P16150); assay: flow cytometry on COLO 205 cells; signal of biotinylated 5F1 (1 microgram/ml, competitor) with unlabeled antibody at 0.82 microgram/ml
[5] = biological target: CD43 expressed on the surface of COLO 205 colorectal cancer cells (human) (UniProt P16150); assay: flow cytometry on COLO 205 cells; signal of biotinylated 5F1 (1 microgram/ml, competitor) with unlabeled antibody at 0.03 microgram/ml
[6] = biological target: CD43 expressed on the surface of COLO 205 colorectal cancer cells (human) (UniProt P16150); assay: flow cytometry on COLO 205 cells; signal of biotinylated 5F1 (1 microgram/ml, competitor) with unlabeled antibody at 22.2 microgram/ml
9F9-01-03-24 = biological target: T1, 9F9-01-03-24; assay: sandwich ELISA, 5F1 coated, peptide-carrier fusion
T1 construct: Tested as a fusion to an unnamed carrier protein
T1 peptide: AETDYDPDHFTP

9F9-01-03-25 = biological target: T2, 9F9-01-03-25; assay: sandwich ELISA, 5F1 coated, peptide-carrier fusion
T2 construct: Tested as a fusion to an unnamed carrier protein
T2 peptide: EPNMDPNWASPS

5F1-01-2-23 = biological target: T3, 5F1-01-2-23; assay: sandwich ELISA, 5F1 coated, peptide-carrier fusion
T3 construct: Tested as a fusion to an unnamed carrier protein
T3 peptide: WPIPTLMELPSA

5F1-01-2-04 = biological target: T4, 5F1-01-2-04 (also: fused to unnamed carrier protein); assay: sandwich ELISA, 5F1 coated, peptide-carrier fusion
T4 construct: Tested as a fusion to an unnamed carrier protein; not shown: the unnamed carrier protein to which the 12-mer was fused (and any linker to it)
T4 peptide: WPIANHENALSA

9F9-01-03-21 = biological target: T5, 9F9-01-03-21; assay: sandwich ELISA, 5F1 coated, peptide-carrier fusion
T5 construct: Tested as a fusion to an unnamed carrier protein
T5 peptide: YDHHWTNPPTQK

9F9-01-03-17 = biological target: T6, 9F9-01-03-17; assay: sandwich ELISA, 5F1 coated, peptide-carrier fusion
T6 construct: Tested as a fusion to an unnamed carrier protein
T6 peptide: AGQKWDPEWPHS

9F9-01-03-18 = biological target: T7, 9F9-01-03-18; assay: sandwich ELISA, 5F1 coated, peptide-carrier fusion
T7 construct: Tested as a fusion to an unnamed carrier protein
T7 peptide: DARYSHDPAWPY

5F1-01-2-06 = biological target: T8, 5F1-01-2-06 (also: fused to unnamed carrier protein); assay: sandwich ELISA, 5F1 coated, peptide-carrier fusion
T8 construct: Tested as a fusion to an unnamed carrier protein; not shown: the unnamed carrier protein to which the 12-mer was fused (and any linker to it)
T8 peptide: WPIPPEVEPFKH
Protocol: (§1) To further confirm the tripeptide epitope that antibody 5F1 binds, Sandwich ELISA was performed. 96-well microtiter plates were coated with antibody (5F1 or control antibody 9E10) with 50 μl per well at the concentration of 1 μg/ml over night at 4° C. Plates were blocked by incubation with 0.25% of BSA in PBS (150 μl/well) for 1 hour at 37° C. Plates were then incubated with fusion proteins containing various fragments of polypeptides fused to a carrier protein for 2 hours at room temperature. After washing 4 times with PBS containing 0.05% of Tween 20, plates were then incubated with carrier protein-specific antibody at 2 μg/ml for 1.5 hours at room temperature. After incubation, plates were washed 4 times with PBST. 50 μl of 1 to 3000 diluted Goat anti-carrier protein-specific antibody conjugated with HRP was then added to each well and the plates were incubated for 1 hour at 37° C. Enzyme reaction was carried out by adding substrate of the HRP enzyme to determine the reactivity of the designated polypeptide to these to these two antibodies (5F1 and 9E10). […] Monoclonal antibody 5F1 recognized a tripeptide WPI epitope structure.

5F1-01-2-17 = biological target: T9, 5F1-01-2-17 (also: fused to unnamed carrier protein); assay: sandwich ELISA, 5F1 coated, peptide-carrier fusion
T9 construct: Tested as a fusion to an unnamed carrier protein; not shown: the unnamed carrier protein to which the 12-mer was fused (and any linker to it)
T9 peptide: WPILDHAVSRPS
Protocol: as §1

5F1-01-2-13 = biological target: T10, 5F1-01-2-13 (also: fused to unnamed carrier protein); assay: sandwich ELISA, 5F1 coated, peptide-carrier fusion
T10 construct: Tested as a fusion to an unnamed carrier protein; not shown: the unnamed carrier protein to which the 12-mer was fused (and any linker to it)
T10 peptide: WPISPQPGARPV
Protocol: as §1

5F1-01-2-21 = biological target: T11, 5F1-01-2-21 (also: fused to unnamed carrier protein, order not given here); assay: sandwich ELISA, 5F1 coated, peptide-carrier fusion
T11 construct: Tested as a fusion to an unnamed carrier protein; not shown: the unnamed carrier protein to which the 12-mer was fused (and any linker to it)
T11 peptide: WPIDLMSETPIL
Protocol: as §1

5F1-01-2-16 = biological target: T12, 5F1-01-2-16 (also: fused to unnamed carrier protein); assay: sandwich ELISA, 5F1 coated, peptide-carrier fusion
T12 construct: Tested as a fusion to an unnamed carrier protein; not shown: the unnamed carrier protein to which the 12-mer was fused (and any linker to it)
T12 peptide: WPIDIPYAWDFS
Protocol: as §1

5F1-01-2-14 = biological target: T13, 5F1-01-2-14; assay: sandwich ELISA, 5F1 coated, peptide-carrier fusion
T13 construct: Tested as a fusion to an unnamed carrier protein
T13 peptide: WPIHSAHVRYTT
Protocol: as §1

5F1-01-2-22 = biological target: T14, 5F1-01-2-22; assay: sandwich ELISA, 5F1 coated, peptide-carrier fusion
T14 construct: Tested as a fusion to an unnamed carrier protein
T14 peptide: WPITNSDSRITW
Protocol: as §1

5F1-01-2-09 = biological target: T15, 5F1-01-2-09 (also: fused to unnamed carrier protein); assay: sandwich ELISA, 5F1 coated, peptide-carrier fusion
T15 construct: Tested as a fusion to an unnamed carrier protein; not shown: the unnamed carrier protein to which the 12-mer was fused (and any linker to it)
T15 peptide: WPIAPNRYLLSS
Protocol: as §1

5F1-01-2-18 = biological target: T16, 5F1-01-2-18 (also: fused to unnamed carrier protein); assay: sandwich ELISA, 5F1 coated, peptide-carrier fusion
T16 construct: Tested as a fusion to an unnamed carrier protein; not shown: the unnamed carrier protein to which the 12-mer was fused (and any linker to it)
T16 peptide: WPISGKHSFWSL
Protocol: as §1

[7] = biological target: CD43 expressed on the surface of COLO 205 colorectal cancer cells (human) (UniProt P16150); assay: flow cytometry on COLO 205 cells; signal of biotinylated 5F1 (1 microgram/ml, competitor) with unlabeled antibody at 2.46 microgram/ml
[8] = biological target: CD43 expressed on the surface of NCI-N87 gastric cancer cells (human) (UniProt P16150); assay: flow cytometry on NCI-N87 cells
Sequence of CD43 expressed on the surface of NCI-N87 gastric cancer cells (human) (P16150 20-400): as above

[9] = biological target: CD43 expressed on the surface of COLO 205 colorectal cancer cells (human) (UniProt P16150); assay: cell-based or functional assay
[10] = biological target: CD43 expressed on the surface of COLO 205 colorectal cancer cells (human) (UniProt P16150); assay: flow cytometry on COLO 205 cells; signal of biotinylated 5F1 (1 microgram/ml, competitor) with unlabeled antibody at 200 microgram/ml
[11] = biological target: CD43 on Jurkat cells (lymphoblastoid leukemia cell line; ATCC TIB-152) (human) (UniProt P16150); assay: flow cytometry on Jurkat cells
Sequence of CD43 on Jurkat cells (lymphoblastoid leukemia cell line; ATCC TIB-152) (human) (P16150 20-400): as above

[12] = biological target: CD43 expressed on the surface of COLO 205 colorectal cancer cells (human) (UniProt P16150); assay: flow cytometry on COLO 205 cells; signal of biotinylated 5F1 (1 microgram/ml, competitor) with unlabeled antibody at 0.273 microgram/ml
[13] = biological target: CD43 expressed on the surface of COLO 205 colorectal cancer cells (human) (UniProt P16150); assay: flow cytometry on COLO 205 cells; signal of biotinylated 5F1 (1 microgram/ml, competitor) with unlabeled antibody at 0.09 microgram/ml
[14] = biological target: CD43 expressed on the surface of COLO 205 colorectal cancer cells (human) (UniProt P16150); assay: flow cytometry on COLO 205 cells; signal of biotinylated 5F1 (1 microgram/ml, competitor) with unlabeled antibody at 66.7 microgram/ml

Sequence of CD43 on human peripheral T cells (human) (P16150 20-400): as above

- % of Binding [1]: > 80%
- % of Binding [2]: > 70%
Molecule: MEM-59 (anti-CD43; Biovendor, Candler, NC) (antibody)

- Mean Fluorescence Intensity [3]: 129
- Mean Fluorescence Intensity [4]: 1000
- Mean Fluorescence Intensity [5]: 888
- % of Binding [1]: < 10%
- Mean Fluorescence Intensity [6]: 21.7
- binding result (9F9-01-03-24): no binding
- binding result (9F9-01-03-25): no binding
- binding result (5F1-01-2-23): binds
- binding result (5F1-01-2-04): binds
- binding result (9F9-01-03-21): no binding
- binding result (9F9-01-03-17): no binding
- binding result (9F9-01-03-18): no binding
- binding result (5F1-01-2-06): binds
- binding result (5F1-01-2-17): binds
- binding result (5F1-01-2-13): binds
- binding result (5F1-01-2-21): binds
- binding result (5F1-01-2-16): binds
- binding result (5F1-01-2-14): binds
- binding result (5F1-01-2-22): binds
- binding result (5F1-01-2-09): binds
- binding result (5F1-01-2-18): binds
- Mean Fluorescence Intensity [7]: 733
- % of Binding [2]: > 80%
- % of Binding [8]: > 80%
- % Apoptosis (annexin-V+) [9]: > 40%
- Mean Fluorescence Intensity [10]: 9.78
- % of Binding [11]: < 10%
- Mean Fluorescence Intensity [12]: 1030
- Mean Fluorescence Intensity [13]: 825
- Mean Fluorescence Intensity [14]: 60.3
B1: monoclonal antibody 5F1 (antibody, V domains shown)
VH: EVQLQQSGPELVKPGASVRMSCTASGYTFTSYVMHWIKQKPGQGLDWIGYINPYNGGTQYNEKFKGKATLTSDKSSSTAYMELSSLTSEDSAVYYCARRTFPYYFDYWGQGTTLTVSS
VL: DVLMTQTPLSLPVSLGDQASISCRSSQSILHSNGNTYLEWYLQKPGQSPKLLIYKVSNRFSGVPDRFSGSGSGTDFTLKISRVEAEDLGVYYCFQGSHAPLTFGAGTKLELK
notes: also called m5F1; m133-5F1
